Laboratory results taken from patent US20260027153A1 (published 2026).
Each block holds one molecule with its values, some of them ahead of it.

Assays:
[1] = target: HLA-A*02:01 restricted NY-ESO-1 C9V peptide (…) pMHC (human); test: transduced PBMCs loaded on pMHC-labeled nanovials (20 µg/ml pMHC), flow cytometry
[2] = target: HLA-A*02:01 restricted NY-ESO-1 C9V peptide (…) pMHC (human); test: transduced PBMCs loaded on pMHC-labeled nanovials (20 µg/ml pMHC), anti-NGFR staining, flow cytometry
[3] = target: T1, SCAMP3 (secretory carrier-associated membrane protein 3), cancer-enhanced splicing epitope peptide on … (human); test: multimer staining
T1 peptide: STMYYLWML

[4] = target: T2, MEAF6 (MYST/Esa1 associated factor 6) splicing variant peptide on HLA-A*02:01 (human); test: multimer staining
T2 peptide: SGMFDYDFEYV

Molecule: 1G4 TCR
fraction of nanovials occupied by live cells [1]: 17% | fraction of nanovial-bound live cells with NGFR expression [2]: 93.9%

B1: NVTCR19 (TCR, V domains shown)
Valpha: KQEVTQIPAALSVPEGENLVLNCSFTDSAIYNLQWFRQDPGKGLTSLLLIQSSQREQTSGRLNASLDKSSGRSTLYIAASQPGDSATYLCAVTSGGSYIPTFGRGTSLIVHP
Vbeta: DGGITQSPKYLFRKEGQNVTLSCEQNLNHDAMYWYRQDPGQGLRLIYYSQIVNDFQKGDIAEGYSVSREKKESFPLTVTSAQKNPTAFYLCASSDPFRSGTDSPLHFGNGTRLTVT
binding result [3]: recognises

Second part, the molecule after the results:

binding result [4]: recognises
B2: NVTCR21 (TCR, V domains shown)
Valpha: AQSVAQPEDQVNVAEGNPLTVKCTYSVSGNPYLFWYVQYPNRGLQFLLKYITGDNLVKGSYGFEAEFNKSQTSFHLKKPSALVSDSALYFCAVRDTPSGSARQLTFGSGTQLTVLP
Vbeta: GAGVSQTPSNKVTEKGKYVELRCDPISGHTALYWYRQSLGQGPEFLIYFQGTGAADDSGLPNDRFFAVRPEGSVSTLKIQRTERGDSAVYLCASSLTSSGGGPYNEQFFGPGTRLTVL

binding result [3]: recognises
B3: NVTCR11 (TCR, V domains shown)
Valpha: GIQVEQSPPDLILQEGANSTLRCNFSDSVNNLQWFHQNPWGQLINLFYIPSGTKQNGRLSATTVATERYSLLYISSSQTTDSGVYFCAVDLNDYKLSFGAGTTVTVRA
Vbeta: NAGVTQTPKFRVLKTGQSMTLLCAQDMNHEYMYWYRQDPGMGLRLIHYSVGEGTTAKGEVPDGYNVSRLKKQNFLLGLESAAPSQTSVYFCASSSHGSTGELFFGEGSRLTVL
